{"source": "FireProtDB (doi:10.1016/s0022-2836(02)00737-4)", "parents": {"B1": {"name": "Tryptophan synthase alpha chain, P0A877 (parent)", "chain": "MERYESLFAQLKERKEGAFVPFVTLGDPGIEQSLKIIDTLIEAGADALELGIPFSDPLADGPTIQNATLRAFAAGVTPAQCFEMLALIRQKHPTIPIGLLMYANLVFNKGIDEFYAQCEKVGVDSVLVADVPVEESAPFRQAALRHNVAPIFICPPNADDDLLRQIASYGRGYTYLLSRAGVTGAENRAALPLNHLVAKLKEYNAAPPLQGFGISAPDQVKAAIDAGAAGAISGSAIVKIIEQHINEPEKMLAALKVFVQPMKAATRS"}}, "variants_of": "B1", "conditions": "Escherichia coli (strain K12); pH 7.8; 25 °C; Urea; CD; potassium phosphate 10 mM; transition: 3; structure 1WQ5; whole UniProt chain shown", "note": "Several values for one entry are separate records, joined by “and”; a condition that tells them apart may be missing. Equal values may be shown once.", "data": [{"variant": "P28A", "values": [{"measurement": "denaturant m value", "result": "1.48 kcal/mol/M and 1.04 kcal/mol/M"}, {"measurement": "denaturant midpoint (higher = more stable)", "result": "1.36 M and 3.66 M"}, {"measurement": "unfolding free energy", "result": "2.01 kcal/mol and 3.81 kcal/mol"}]}, {"variant": "P28G", "values": [{"measurement": "denaturant m value", "result": "2.15 kcal/mol/M and 1.18 kcal/mol/M"}, {"measurement": "denaturant midpoint (higher = more stable)", "result": "2.08 M and 4.1 M"}, {"measurement": "unfolding free energy", "result": "4.47 kcal/mol and 4.84 kcal/mol"}]}]}
